Assays:
人CD40(ECD)-his蛋白 (human) = 人CD40(ECD)-his蛋白 (human) (UniProt P25942); assay: SPR Biacore 8K; human CD40(ECD)-his coupled to CM5, antibody as analyte, 1:1 model
[1] = target: 人CD40 (HEK293A细胞表达) (human) (UniProt P25942); assay: cell-based or functional assay
人CD40 (HEK293A细胞表达) (human), sequence (P25942 21-277 limits assumed): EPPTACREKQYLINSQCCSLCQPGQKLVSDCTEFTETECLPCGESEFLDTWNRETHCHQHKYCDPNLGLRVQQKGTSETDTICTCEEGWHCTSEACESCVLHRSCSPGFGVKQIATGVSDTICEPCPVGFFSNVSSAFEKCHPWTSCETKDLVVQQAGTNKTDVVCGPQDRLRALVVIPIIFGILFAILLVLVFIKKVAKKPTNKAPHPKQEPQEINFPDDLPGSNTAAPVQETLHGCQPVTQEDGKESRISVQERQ

人CD40(ECD)-his蛋白 (human), sequence (P25942 21-193): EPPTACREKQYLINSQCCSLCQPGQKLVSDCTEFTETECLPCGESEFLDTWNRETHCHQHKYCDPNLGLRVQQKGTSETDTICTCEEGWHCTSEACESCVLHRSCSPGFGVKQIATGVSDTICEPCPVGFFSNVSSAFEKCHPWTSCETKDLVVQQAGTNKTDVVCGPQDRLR

Work on ADC1013 (antibody) yielded a Kd (人CD40(ECD)-his蛋白 (human)) of 29 nM and an HEK-Blue EC50 [1] of 1.03 µg/mL.

In the case of RO7009789 (antibody), the Kd (人CD40(ECD)-his蛋白 (human)) is reported as 1.71 nM and the HEK-Blue EC50 [1] is reported as 0.0233 µg/mL.

— patent publication CN109912717A
